Assay results: US20090131277A1 (PROSCAN RX PHARMA, published 2009)
Values belong to the binder of their own block, whether it stands above or below them.

Biological target: T1, prostate-specific membrane antigen (PSMA) (human, UniProt Q04609 44-750, limits assumed, 125I-labelled in Examples 2 and 8 (site of iodination not stated); unlabelled in Examples 5 and 6)
T1 construct: also called purified recombinant PSMA
Assay: competition radioligand binding: 1 nM 125I-PSMA on plate-coated mimetope (SEQ ID NO:24), with 0 or 10 uM of the soluble peptide as competitor
Description: For a typical competition binding experiment, the mimetope is coated to a solid support such as a 96-well plate by allowing 100 ul of a 10 uM solution of the mimetope (SEQ ID NO:24) in water to dry in the wells. The wells are then washed with TBST and blocked with 3% casein in TBST to minimize non-specific binding. The wells are then incubated with 1 nM ¹²⁵I-PSMA at a specific activity of about 80 000 dpm/pmol, containing 0 or 10 uM of alanine-mimetope. The plate is incubated O/N at 4° C. then the wells are rapidly washed with TBST to remove the unbound ligand fraction, and then counted in a gamma counter. The radioactivity counted in each wells represents the bound fraction of the ligand. An alanine-mimetope that binds to PSMA will thus reduce the binding of ¹²⁵I-PSMA to the coated (SEQ ID NO:24).

T1 sequence (Q04609 44-750 limits assumed): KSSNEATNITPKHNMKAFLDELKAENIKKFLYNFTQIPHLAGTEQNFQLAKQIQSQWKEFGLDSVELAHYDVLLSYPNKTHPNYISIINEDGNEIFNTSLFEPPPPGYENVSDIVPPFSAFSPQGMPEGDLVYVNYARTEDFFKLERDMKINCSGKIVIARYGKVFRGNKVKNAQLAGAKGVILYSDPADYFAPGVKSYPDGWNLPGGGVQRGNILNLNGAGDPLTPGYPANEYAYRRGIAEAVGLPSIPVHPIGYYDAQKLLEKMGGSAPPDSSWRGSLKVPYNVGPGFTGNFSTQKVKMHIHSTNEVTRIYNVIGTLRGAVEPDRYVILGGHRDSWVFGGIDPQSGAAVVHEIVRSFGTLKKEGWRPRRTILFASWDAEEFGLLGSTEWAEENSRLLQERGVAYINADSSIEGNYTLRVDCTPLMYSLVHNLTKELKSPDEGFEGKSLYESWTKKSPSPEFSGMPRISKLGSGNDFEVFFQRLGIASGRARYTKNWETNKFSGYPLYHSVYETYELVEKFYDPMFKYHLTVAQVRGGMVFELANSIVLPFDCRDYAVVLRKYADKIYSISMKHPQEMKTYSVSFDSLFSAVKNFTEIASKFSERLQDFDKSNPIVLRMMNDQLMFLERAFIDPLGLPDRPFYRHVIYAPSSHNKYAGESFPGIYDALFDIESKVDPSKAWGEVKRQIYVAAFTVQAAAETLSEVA

binding result: no binding (tested: 10 uM)
B1: PS69 (peptide)
peptide: KQSYNFAT

binding result: no binding (tested: 10 uM)
B2: PS68 (peptide)
peptide: KQSYNAIT
